Data set [1] deals with IL-1α-stimulated bEnd.3 cells. Nature of the data set: Coaguligand-induced Factor Xa formation, chromogenic assay. The class given is cell-based, mouse. Conditions: 10 μg per ml Annexin V. On the procedure: The ability of Annexin V to affect Factor Xa formation induced by coaguligand was determined by a chromogenic assay. IL-1α-stimulated bEnd.3 cells were incubated with anti-VCAM-·tTF and permeabilized by saponin. Annexin V was added at concentrations ranging from 0.1 to 10 μg/ml and cells were incubated for 30 min. before addition of diluted Proplex T. The amount of Factor Xa generated in the presence or absence of Annexin V was determined. Each treatment was performed in duplicate and repeated at least twice.

For the next data set, the system named is L540 Hodgkin tumors. Description: Annexin V inhibition of coaguligand-induced thrombosis in vivo. Also on record: species or system mouse. On the procedure: The ability of Annexin V to inhibit coaguligand-induced thrombosis in vivo was examined in L540 Hodgkin-bearing SCID mice. Tumors were grown in mice and two mice per group (tumor size 0.5 cm in diameter) were injected intravenously via the tail vein with one of the following reagents: a) saline; b) 100 μg of Annexin V; c) 40 μg of anti-VCAM-1·tTF; d) 100 μg of Annexin V followed 2 hours later by 40 μg of anti-VCAM-1·tTF.
Four hours after the last injection mice were anesthetized and perfused with heparinized saline. Tumors were removed, fixed with 4% formalin, paraffin-embedded and stained with hematoxylene-eosin. The number of thrombosed and non-thrombosed blood vessels was counted and the percentage of thrombosis was calculated.

The subject of a further data set is bEnd.3 and ABAE cells. Description: Binding to cultured endothelial cells and inhibition by liposomes. The class given is cell-based, mouse, bovine. The settings on record: quiescent conditions. On the procedure: Endothelial cells were grown until they reached approximately 70% confluence. To induce PS exposure, cells were treated with H2O2 (200 μM) for 1 h at 37° C. Control and treated slides were washed with DPBS containing Ca^2+ and Mg^2+ and fixed with 0.25% of glutaraldehyde diluted in the same buffer. Excess aldehyde groups were quenched by incubation with 50 mM of NH4Cl for 5 min. To examine the effect of detergents and organic solvents on detection of phospholipids, some slides were pre-incubated with acetone (5 min) or with PBS containing 1% (v/v) Triton™ X-100.
Cells were washed with DPBS (containing Ca^2+, Mg^2+ and 0.2% (w/v) gelatin) and incubated with 1 μg/ml of biotinylated annexin V (Pharmingen, San Diego, Calif.) or with 1 μg/ml of 9D2 antibody. After 2 h of incubation, cells were washed with 0.2% gelatin buffer and were incubated with streptavidin-HRP (1:500 dilution). […] HRP activity was measured by adding O-phenylenediamine (0.5 mg/ml) and hydrogen peroxide (0.03% w/v) in citrate-phosphate buffer, pH 5.5. After 15 min, 100 μl of supernatant were transferred to 96 well plates, 100 μl of 0.18 M H2SO4 were added and the absorbance was measured at 490 nm. Alternatively, PS-positive cells were detected by addition of carbazole substrate, resulting in insoluble red-brownish precipitate. […]

The next data set concerns MDA-MB-231 tumor vessels. Description: Double staining of orthotopic MDA-MB-231 tumors. It is filed as in vivo, mouse. Conditions: biotinylated reagent i.v., one hour. On the procedure: In further studies, mice bearing MDA-MB-231 tumors (0.3-0.7 cm^3 in volume) were injected intravenously with 50 μg of biotinylated 9D2, control IgM or annexin V (six mice per group). Biotinylated reagents were first incubated with streptavidin-Cy3 conjugate, washed in PBS, then incubated with MECA 32 antibody followed by FITC-tagged anti-rat IgG secondary antibody. Single images, taken with appropriate filters for Cy3 (red) and FITC (green) fluorescence respectively, were captured by digital camera and transferred to a computer. […] The same method was used to analyze tumors from mice injected with control rat IgM or saline. The percentage of vessels with localized 9D2 or annexin V was calculated as follows: mean number of yellow vessels per field divided by mean number of green (total) vessels multiplied by 100.
Double staining studies were also performed in which mice bearing orthotopic MDA-MB-231 breast tumors were injected intravenously with biotinylated 9D2 antibody, biotinylated control IgM or biotinylated annexin V. One hour later, the mice were exsanguinated, and their tumors were removed and frozen sections were cut. The tumor sections were then stained with Cy3-conjugated streptavidin to detect the biotinylated proteins and with FITC-conjugated MECA32 to detect vascular endothelium. […]

Data set [2] in a line: 3G4 toxicity studies in mice. It is filed as in vivo, mouse. An excerpt: The following parameters were specifically examined.
Mice retain normal physical signs, bone marrow cellularity, white blood cell counts, histology and coagulation functions.

The test system of data set [3] is Pan02 mouse pancreatic adenocarcinoma. Nature of the data set: 3G4 and gemcitabine, pancreatic cancer. The class given is in vivo. The settings on record: 3G4 100 μg, gemcitabine 3.5 mg; day 22. On the procedure: Pan02 mouse pancreatic adenocarcinoma cells were injected into the pancreas of immunocompetent C57BL/6 mice. Treatment was started on day 5 after tumor cell injection. […] Gemcitabine is a pyrimidine anti-metabolite. The animals were sacrificed at day 22 after tumor cell injection, and the tumor weight determined.

For the next data set, the system named is mCMV RVG102. Nature of the data set: Survival of mCMV-infected mice. The class given is in vivo, mouse. Conditions: past 90 days post infection; untreated 25%.
Another data set deals with tumors. Description: Tumor treatment with 3G4 and its F(ab′)2 fragment. The class given is in vivo, mouse. Conditions: treated on day 9.
For another data set, the system named is human CMV AD169. Description: CMV plaque assay after antibody treatment.
Another data set deals with RSV long strain. Description: RSV plaque assay after antibody treatment. The settings on record: MOI of 1.

As for “Annexin V: High affinity PS binding ligand; natural ligand binding anionic phospholipids and PE”, the “inhibition of factor Xa production” value in [1] came out at 58%. The “coaguligand-induced intravascular thrombosis and changes in tumor cell morphology” value with L540 Hodgkin tumors (100 μg Annexin V 2 hours before 40 μg coaguligand) was “completely abolished”. In the data set with L540 Hodgkin tumors (100 μg Annexin V alone), the tumor morphology result is reported as “did not alter tumor morphology”. In the data set on bEnd.3 and ABAE cells, the “binding to non-permeabilized monolayers” value is given as “Neither 9D2 nor annexin V bound”. Besides, the “MECA 32 positive vessels that bound the reagent” value in the data set with MDA-MB-231 tumor vessels is “About 40%”.

B1: 3G4: Mouse IgG3 kappa monoclonal antibody to PS and anionic phospholipids; binding mediated by β2-glycoprotein I (antibody, listed as Mus musculus)
VH: MGWTWIFILILSVTTGVHSEVQLQQSGPELEKPGASVKLSCKASGYSFTGYNMNWVKQSHGKSLEWIGHIDPYYGDTSYNQKFRGKATLTVDKSSSTAYMQLKSLTSEDSAVYYCVKGGYYGHWYFDVWGAGTTVTVSSATTTAPSVYPLVP
VL: MDMRAPAQILGFLLLLFPGTRCDIQMTQSPSSLSASLGERVSLTCRASQDIGSSLNWLQQGPDGTIKRLIYATSSLDSGVPKRFSGSRSGSDYSLTISSLESEDFVDYYCLQYVSSPPTFGAGTKLELKRADAAPTVFIFGRIP
For B1, the “blood coagulation parameters (PT, APTT, D-dimer)” value in data set [2] (100 μg IP three times a week) is given as “normal”. In addition, the toxicity entry in [2] (1 mg purified antibody intraperitoneally) is reported as “no toxicity was observed”. In addition, the “physical signs of toxicity” value is recorded as “No physical signs of toxicity have been observed” in [2] (BALB/c mice, 100 μg IP three times a week for 2 to 4 weeks) and “showed no physical signs of toxicity” in data set [2] (single i.p. 2 mg, or 0.5 mg daily for 14 days). For the same molecule, the “Bone marrow cellularity and composition” value in [2] (six injections, 100 μg) was “normal”. Also, in data set [3], the “anti-tumor effect (tumor weight)” value is “significant anti-tumor effect”. This molecule also yielded a survival in the data set on mCMV RVG102 of 100%. Also, the tumor growth entry with tumors is “tumor growth was significantly slowed”. Further, the “inhibitory effect on viral titer” value with human CMV AD169 (high m.o.i., addition delayed to 48 hours) was 2 log10. Besides, the “decrease in viral titer” value in the data set with human CMV AD169 (high m.o.i., addition up to 24 hours after infection) is on record as 5-6 log10; with RSV long strain it was 2 log10. Further, in the data set with human CMV AD169 (m.o.i. of 3, 50 μg/ml), the “inhibition of viral replication vs GV39G” value came to 3 logs. For the same molecule, the “decrease in viral titer vs GV39G” value in the data set on human CMV AD169 (m.o.i. of 3, 100 μg/ml) came out at 5 log10; with human CMV AD169 (m.o.i.=0.01, 50 μg/ml) it was 3.5 log10; in the data set with human CMV AD169 (m.o.i.=0.01 pfu/cell, 100 μg/ml), 6 log10. The “inhibition of viral replication” value with human CMV AD169 (m.o.i.=0.01, 100 μg/ml) was “approximately 99.9999%”.

Values taken from patent publication US20160311886A1, “Constructs Binding to Phosphatidylserine and Their Use in Disease Treatment and Imaging” (Board of Regents, The University of Texas System, priority 2005, published 2016).
